Experimental data: US20180267027A1, “FLUORESCENT BIOSENSOR FOR […] ASSAY” (The Regents of the University of California, priority 2015, published 2018)

Tests used:
E. coli cells = experiment: RNA stability in E. coli, cpSpinach2 fluorescence in M9 minimal media; format: cell-based; conditions: M9 minimal media without inducers, monitored for 4 h
Method: Fluorescence of cpSpinach2-expressing E. coli cells grown 16 hrs in auto-induction media, then pelleted and re-suspended in M9 minimal media without RNA transcription inducers.
RNA stability in E. coli: For the time-course experiment shown in FIG. 4D, E. coli cells from overnight culture (16 h post-inoculation and induction) were pelleted and re-suspended in M9 minimal media without transcriptional inducers (lactose). To analyze the stability of RNA levels under these conditions, E. coli cells expressing cpSpinach2 were processed using the same procedures and fluorescence was monitored for 4 h. Fluorescence readings remained stable for up to 3 h in M9 minimal media. Therefore, we expect that the related biosensor levels would be stable in the same time-frame, so the fluorescence change shown in FIG. 4D reflects the dynamic change in SAH levels.

E. coli BL21* cells = experiment: In vivo fluorescence of RNA aptamers by flow cytometry; format: cell-based; conditions: 100 μM DFHBI
Method: To compare the fluorescence of Spinach2 and cpSpinach2 in live cells, pET31b plasmids encoding the RNA aptamers in a tRNA scaffold were transformed into E. coli BL21* cells. Following IPTG induction of transcription, cells were incubated with DFHBI and fluorescence was quantitated by flow cytometry. The mean cellular fluorescence was measured as a function of increasing DFHBI concentration in the media, in order to determine the optimal conditions for aptamer fluorescence. Unexpectedly, full saturation of fluorescence was not observed, even when E. coli cells were incubated in media containing up to 800 μM DFHBI (FIG. 5). However, the non-specific fluorescence signal increased when DFHBI concentration exceeded 100 μM. Thus, to balance higher fluorescence activation and lower non-specific background, a concentration of 100 μM was adopted for further experiments. Under these conditions, cellular fluorescence activation for Spinach2 and cpSpinach2 was on average 34 and 22-fold over background, respectively (FIG. 6). Thus, cpSpinach2 is a functional alternative to Spinach2. Although it currently performs slightly poorer in terms of fluorescence activation in live cells, improvements are likely possible through directed mutagenesis for higher thermal stability, improved folding efficiency and less Mg^2+ dependency. […]

[1] = test system: E. coli BL21* wild-type and ΔMTAN cells; experiment: Live cell detection of SAH accumulation, wild-type versus MTAN knockout, flow cytometry; format: cell-based
Method: A Targetron® Gene Knockout System (Sigma-Aldrich) was used to knock out the MTAN gene from E. coli BL21*, following manufacturer protocols.
Preparation of cell samples for flow cytometry was carried out by inoculating 2 mL of auto-induction media/Carb (F. Studier, Protein Expression and Purification 2005, 41, 207-234) with E. coli BL21* cells from colonies grown on an LB/Carb culture plate, containing pET31b plasmids encoding RNA aptamers. […] Cells were then grown aerobically overnight to saturation (0D600 varied from 5 to 10) and diluted to OD600˜0.01-0.05 in M9 minimal media (pH ˜6.0) with 100 μM DFHBI-1T. Cellular fluorescence was measured for 30,000 cells using a Life Technologies Attune N×T Acoustic Focusing Cytometer.

[2] = molecular target: T1, protein lysine MTase SET7/9 (Homo sapiens, UniProt Q8WTS6); experiment: Protein MTase SET7/9 activity assay with SAH biosensor; format: biochemical
T1 construct: purchased New England Biolabs Inc (Ipswich, Mass.)
T1 sequence (Q8WTS6 1-366): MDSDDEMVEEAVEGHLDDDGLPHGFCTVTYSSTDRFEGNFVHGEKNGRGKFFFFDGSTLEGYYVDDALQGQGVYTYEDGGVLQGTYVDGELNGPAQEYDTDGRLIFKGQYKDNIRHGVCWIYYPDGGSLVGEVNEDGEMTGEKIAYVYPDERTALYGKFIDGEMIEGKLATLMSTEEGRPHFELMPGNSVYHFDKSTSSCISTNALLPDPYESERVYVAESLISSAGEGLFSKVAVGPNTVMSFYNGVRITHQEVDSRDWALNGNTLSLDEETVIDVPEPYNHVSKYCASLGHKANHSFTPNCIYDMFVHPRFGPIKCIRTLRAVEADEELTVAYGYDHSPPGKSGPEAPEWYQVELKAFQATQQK
Method: To initiate the enzyme reaction, 5 μL of H3 peptide substrate (N′-[…]-LAGGKKC-C′) (SEQ ID NO:132) was added to 5 μL of 2×enzyme reaction solution containing SET7/9, SAM, and NEB HMT buffer. Generally, final concentrations are 50 μM H3 peptide, 0.1 U/μL SET7/9, 25 μM SAM, and lx NEB HMT buffer (50 mM Tris, pH 9.0, 5 mM MgCl2, and 4 mM DTT). The reaction solution was incubated at 37° C. for 2 hours to allow the enzyme reaction to proceed.
To initiate the fluorescent biosensor reaction, 10 μL of the enzyme reaction was added to 90 μL of biosensor reaction solution containing renatured RNA, DFHBI, and buffer. […] For the SAH control, SAH was added to a final concentration of 0.5 μM in place of the enzyme reaction. In vitro fluorescence assays were conducted as described above.

[3] = In vitro fluorescence assays of SAH biosensors (turn-on, ligand selectivity); format: biochemical
Method: Other conditions, including temperature, concentrations of MgCl2, DFHBI, ligand or RNA, were varied in different experiments and are indicated in the figures. The RNA was renatured in buffer at 70° C. for 3 min and cooled to ambient temperature for 5 min prior to addition to the reaction solution. DFHBI was added to a solution containing buffer and ligand, and then RNA was added at the end before fluorescence measurement. Binding reactions were performed in 100 μL volumes and were incubated at the indicated temperature in a Corning Costar 3915 96-well black plate until equilibrium was reached, which in some cases takes 30 to 60 minutes. The fluorescence emission was measured using a Molecular Devices SpectraMax Paradigm Multi-Mode detection platform plate reader (Sunnyvale, Calif.) with the following instrument parameters: 448 nm excitation, 506 nm emission.

SET7/9 = molecular target: T2, SET7/9 (Homo sapiens, UniProt Q8WTS6); experiment: High-throughput screening (HTS) assay of SET7/9 activity and inhibition, Z′ score; format: biochemical; conditions: 384-well plate, 16 replicates
T2 construct: purchased New England Biolabs Inc (Ipswich, Mass.)
T2 sequence (Q8WTS6 1-366): T1 sequence (Q8WTS6 1-366)
Method: For HTS experiments, samples were dispensed into a Grenier 781077 384-well flat bottom black plate using an Eppendorf Repeater […] pipetter to dispense reaction components. Z' scores were calculated from 16 well replicates in the 384-well plate. For the HTS SET7/9 activity assay, 3 μL of H3 peptide or water was added to 9 μL of reaction solution containing SET7/9 MTase, SAM, and NEB HMT Reaction Buffer in each well. Final concentrations are: 0.25 U/10 μL SET7/9, 25 μM SAM, 50 μM H3 peptide and 1×NEB HMT Reaction Buffer (50 mM Tris, pH 9.0, 5 mM MgCl2, and 4 mM DTT). After 30 min incubation at 37° C., to initiate the fluorescent biosensor reaction, 18 μL of biosensor reaction solution containing renatured RNA, DFHBI, and buffer was added to each well. […] In vitro fluorescence assays were conducted as described above. For the HTS SET7/9 inhibition assay, 4.5 μL of sinefungin or water was added to 8 μL of reaction solution containing SET7/9 MTase, and NEB HMT Reaction Buffer in each well. After 15 minutes incubation at 37° C., methylation reaction was initiated by adding 2.5 μL solution containing both SAM and H3 peptide. Final concentrations are: 0.25 U/10 μL SET7/9, 25 μM SAM, 50 μM H3 peptide, 300 μM sinefungin and 1×NEB HMT Reaction Buffer (50 mM Tris, pH 9.0, 5 mM MgCl2, and 4 mM DTT). After 30 min incubation at 37° C., to initiate the fluorescent biosensor reaction, 15 μL of biosensor reaction solution containing renatured RNA, DFHBI, and buffer was added to each well. […] In vitro fluorescence assays were conducted as described above.

B1: cpSpinach2: circular permutant of the Spinach2 aptamer, SEQ ID NO: 93 (nucleic acid)
chain: GCAGCCTACTTGTTGAGTAGAGTGTGAGCTCCGTAACTAGTTACATCGCAAGATGTAACTGAATGAAATGGTGAAGGACGGGTCCAGTAGGCTGC
modifications: expressed or natural sequence
- time fluorescence readings remained stable (E. coli cells): up to 3 h
- cellular fluorescence activation over background (E. coli BL21* cells): 22 fold
- fold change in fluorescence between wild-type and MTAN knockout strain 2 ([1]; E. coli BL21* MTAN knockout strain 2): 1.4 ×
- fluorescence signal in ΔMTAN versus wild-type cells ([1]; E. coli BL21*, flow cytometry): no significant difference in signal

B2: Aeh1-4: SAH biosensor, SEQ ID NO: 44 (nucleic acid)
chain: CGCCCCGAGGAGCGCTGCAACAGGTTGTTGAGTAGAGTGTGAGCTCCGTAACTAGTTACATCGCAAGATGTAACTGAATGAAATGGTGAAGGACGGGTCCACCTGCCAGGCTCGGGGATGGCGCCCCATCGTTCCAACGGCGCTCAGCGAAA
- fluorescence response to SET7/9 activity [2]: displayed a fluorescence response to SET7/9 activity
- fluorescence response to SAH at low magnesium ([3]; 3 mM magnesium): decreased fluorescence turn-on
- fluorescence turn-on ([3]; 37° C., 10 mM Mg^2+): around 5 fold
- change of fluorescence turn-on with increasing magnesium ([3]; magnesium from 1 to 20 mM): marked improvement in fluorescence turn-on
- Z′ score, substrate screen (SET7/9): 0.74
- Z′ score, inhibitor screen (SET7/9; 300 μM sinefungin): 0.44
